Test results reported in PMC6105678.

Key:
[1] = target: Bonsai gelsolin, fragment 28–161 of gelsolin (human); test: SEC; 8 mg/ml in EGTA buffer heated at 30 °C for 30 min, cooled to room temperature; 200 μl injected, column at room temperature
[2] = target: Bonsai gelsolin, fragment 28–161 of gelsolin (human); test: SAXS; 28–161 at 8 mg/ml, 1 mM free Ca2+, 40 °C
[3] = target: Bonsai gelsolin, fragment 28–161 of gelsolin (human); test: SAXS; 28–161 at 8 mg/ml, 1 mM EGTA, 40 °C
[4] = target: Bonsai gelsolin, fragment 28–161 of gelsolin (human); test: SAXS; 28–161 at 8 mg/ml, 1 mM EGTA, 30 °C

stoichiometry N [1]: 2
stoichiometry N [2]: 2
stoichiometry N [3]: 4
stoichiometry N [4]: 2
Substance: Bonsai gelsolin, fragment 28–161 of gelsolin (domain or fragment)
